Among the data in patent publication US20200317768A1 (published 2020) are Kd values, retold here.

Common to all, as to test: SPR (Biacore), antibody captured, FcgR analyte
Experiment [1] concerns the target T1, human FcγRIIIaV extracellular domain, C-terminal His-tag (human, UniProt P08637 17-208).
T1 construct: also called human FcgRIIIaV; FcgRIIIaV
Here is the method: (§1) The kinetic analysis of interactions between these antibodies and FcγR was carried out using BIACORE® T200 or BIACORE® 4000 (GE Healthcare). HBS-EP+ (GE Healthcare) was used as the running buffer, and the measurement temperature was set to 25° C. A chip produced by immobilizing Protein A. Protein A/G or mouse anti-human IgG kappa light chain (BD Biosciences) onto a Series S Sensor Chip CM4 or CM5 (GE Healthcare) by the amine-coupling method was used. […] After the measurement, the antibody captured on the chip was washed off by allowing reaction with 10 mM glycine-HCl, pH1.5 and 25 mM NaOH so that the chip was regenerated and used repeatedly. The sensorgrams obtained as measurement results were analyzed by the 1:1 Langmuir binding model using the BIACORE® Evaluation Software to calculate the binding rate constant ka (L/mol/s) and dissociation rate constant kd (l/s), and the dissociation constant KD (mol/L) was calculated from these values. […] Regarding such interactions, KD values were calculated using the following 1:1 binding model described in BIACORE® T100 Software Handbook BR1006-48 Edition AE.
(§2) The behavior of interacting molecules according to the 1:1 binding model on BIACORE® can be described by Equation 1: Req=C·R max/(KD+C)+RI, wherein, Req is a plot of steady-state binding levels to analyte concentration. C is concentration, RI is bulk refractive index contribution in the sample, and Rmax is analyte binding capacity of the surface. When this equation is rearranged, KD can be expressed as Equation 2: KD=C·Rmax/(Req−RI)−C. KD can be calculated by substituting the values of Rmax, RI, and C into Equation 1 or Equation 2. From the current measurement conditions, RI=0, C=2 μmol/L can be used.

The target of experiment [2] is T2, human FcγRIIaR extracellular domain, C-terminal His-tag (human, UniProt P12318 34-217).
T2 construct: also called human FcγRIIa (type R); FcgRIIaR
T2 chain: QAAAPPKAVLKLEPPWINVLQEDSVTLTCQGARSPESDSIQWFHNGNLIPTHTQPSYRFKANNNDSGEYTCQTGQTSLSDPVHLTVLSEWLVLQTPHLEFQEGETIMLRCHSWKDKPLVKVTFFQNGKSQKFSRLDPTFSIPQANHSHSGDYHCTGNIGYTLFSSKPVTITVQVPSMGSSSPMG
Here is the method:
as §1, §2

For experiment [3], the target named is T3, cynomolgus monkey FcγRIIa2 extracellular domain, C-terminal His-tag (cynomolgus monkey).
T3 construct: also called cyno FcγRIIa2; cynoFcgRIIa2
T3 chain: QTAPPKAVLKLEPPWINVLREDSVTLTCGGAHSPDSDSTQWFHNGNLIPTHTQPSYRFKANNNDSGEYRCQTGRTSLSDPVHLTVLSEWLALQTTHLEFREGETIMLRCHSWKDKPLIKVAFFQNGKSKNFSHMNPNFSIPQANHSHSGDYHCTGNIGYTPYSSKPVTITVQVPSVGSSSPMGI
Here is the method:
as §1, §2

Experiment [4] has as its target T4, cynomolgus monkey FcγRIIb extracellular domain, C-terminal His-tag (cynomolgus monkey).
T4 construct: also called cyno FcγRIIb; cynoFcγRIIb
T4 chain: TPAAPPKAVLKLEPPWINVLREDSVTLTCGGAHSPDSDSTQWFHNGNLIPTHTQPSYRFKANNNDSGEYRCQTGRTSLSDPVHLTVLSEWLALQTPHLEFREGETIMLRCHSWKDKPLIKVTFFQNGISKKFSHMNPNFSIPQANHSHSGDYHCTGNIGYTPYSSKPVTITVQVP
How it is done: as §1, §2

Experiment [5] deals with T5, cynomolgus monkey FcγRIIa3 extracellular domain, C-terminal His-tag (cynomolgus monkey).
T5 construct: also called cyno FcγRIIa3; cynoFcgRIIa3
T5 chain: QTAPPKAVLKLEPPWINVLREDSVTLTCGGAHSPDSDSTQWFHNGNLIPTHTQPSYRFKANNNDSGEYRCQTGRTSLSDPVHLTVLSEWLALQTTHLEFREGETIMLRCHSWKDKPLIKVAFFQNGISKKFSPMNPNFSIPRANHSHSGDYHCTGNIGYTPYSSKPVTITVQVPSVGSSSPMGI
Here is the method: as §1, §2

Experiment [6] concerns the target T6, human FcγRIIb extracellular domain, C-terminal His-tag (human, UniProt P31994 43-217).
T6 construct: also called human FcgRIIb; FcgRIIb
T6 sequence: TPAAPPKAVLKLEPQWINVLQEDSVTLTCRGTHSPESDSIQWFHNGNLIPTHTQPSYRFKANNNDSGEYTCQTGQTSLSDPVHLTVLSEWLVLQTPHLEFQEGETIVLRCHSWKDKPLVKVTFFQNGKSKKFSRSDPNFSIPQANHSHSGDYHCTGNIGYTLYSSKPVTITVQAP
How it is done: as §1, §2

Experiment [7] deals with T7, cynomolgus monkey FcγRIIa1 extracellular domain, C-terminal His-tag (cynomolgus monkey).
T7 construct: also called cyno FcγRIIa1; cynoFcgRIIa1
T7 chain: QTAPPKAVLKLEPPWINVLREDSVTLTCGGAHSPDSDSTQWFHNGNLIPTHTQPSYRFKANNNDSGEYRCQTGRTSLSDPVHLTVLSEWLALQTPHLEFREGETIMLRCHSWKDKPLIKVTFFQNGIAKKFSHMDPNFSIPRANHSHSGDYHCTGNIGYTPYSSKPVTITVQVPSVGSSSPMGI
Here is the method: as §1, §2

Experiment [8] deals with T8, human FcγRIIaH extracellular domain, C-terminal His-tag (human, UniProt P12318 34-217).
T8 construct: also called human FcγRIIa (type H); FcgRIIaH
T8 sequence: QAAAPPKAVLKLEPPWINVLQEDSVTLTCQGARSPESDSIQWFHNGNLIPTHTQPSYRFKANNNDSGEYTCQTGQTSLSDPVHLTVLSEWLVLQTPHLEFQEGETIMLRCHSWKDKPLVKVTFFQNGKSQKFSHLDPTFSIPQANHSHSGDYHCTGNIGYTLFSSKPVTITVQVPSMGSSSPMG
Here is the method: as §1, §2

Experiment [9] deals with T9, cynomolgus monkey FcγRIIIaS extracellular domain, C-terminal His-tag (cynomolgus monkey, UniProt Q8SPW2 21-206 at identity 1.00)).
T9 construct: also called cyno FcγRIIIaS; cynoFcγRIIIaS
T9 chain: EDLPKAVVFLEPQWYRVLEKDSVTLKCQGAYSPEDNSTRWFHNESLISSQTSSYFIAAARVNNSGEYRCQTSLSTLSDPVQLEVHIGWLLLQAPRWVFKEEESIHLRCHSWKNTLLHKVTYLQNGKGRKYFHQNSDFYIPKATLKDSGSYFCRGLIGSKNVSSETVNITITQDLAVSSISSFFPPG
Here is the method: as §1, §2

T1 sequence (P08637 17-208 F176V): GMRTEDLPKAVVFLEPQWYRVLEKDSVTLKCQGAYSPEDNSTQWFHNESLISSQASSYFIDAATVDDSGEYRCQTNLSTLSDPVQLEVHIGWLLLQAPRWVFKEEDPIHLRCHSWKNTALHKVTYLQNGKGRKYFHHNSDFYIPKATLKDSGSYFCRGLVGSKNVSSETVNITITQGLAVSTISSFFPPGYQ

B1: M103205H795-MY198/M103202L889-SK1 (antibody, human IgG1, kappa)
heavy: QVTLKESGPVLVKPTETLTLTCTVSGIDLSHDDISWVRQAPGKGLEWVGIISYAGSTYYASWAKGRLTISKDTSKNQVVLTMTNMDPVDTATYYCARGVPAYSHGGDLWGQGTLVTVSSASTKGPSVFPLAPSSKSTSGGTAALGCLVKDYFPEPVTVSWNSGALTSGVHTFPAVLQSSGLYSLSSVVTVPSSSLGTQTYICNVNHKPSNTKVDKKVEPKSCDKTHTCPPCPAPELLNGPVVFLFPPKPKDTLMISRTPEVTCVVVDVSDEDPEVKFNWYVDGVEVHNAKTKPREEQYNSTYRVVSVLTVLHQDWLNGKEYKCKVSNKALPKPIEKTISKAKGQPREPQVYTLPPSREEMTKNQVSLTCLVKGFYPSDIAVEWESNGQPENNYKTTPMVLDSDGSFFLYSKLTVDKSRWQQGNVFSCSVMHEALHNHYTQKSLSLSP
light: DIVMTQSPATLSLSPGERATLSCTSSQSVYHANWLSWFQQKPGQPPKLLIYWASTLAYGVPSRFSGSGSGTDFTLTISSLQPEDAATYYCAGGYGGGRYAFGQGTKVEIKRTVAAPSVFIFPPSDEQLKSGTASVVCLLNNFYPREAKVQWKVDNALQSGNSQESVTEQDSKDSTYSLSSTLTLSKADYEKHKVYACEVTHQGLSSPVTKSFNRGEC
notes: Substitutions introduced into M103205H795-SG1; expressed with M103202L889-SK1 as light chain
Broadly, the Kd is the concentration at which binding is half-saturated. On to B1, for which the dissociation constant (Kd) in experiment [1] is 8900 nM; in experiment [2], 800 nM; in experiment [3], 350 nM; in experiment [4], 240 nM; in experiment [5], 1400 nM; in [6], 420 nM. Further, the equilibrium dissociation constant (Kd) was found to be 440 nM in [7], 580 nM in [8] and 2700 nM in experiment [9].

B2: M103205H795-MY200/M103202L889-SK1 (antibody, human IgG1, kappa)
heavy: QVTLKESGPVLVKPTETLTLTCTVSGIDLSHDDISWVRQAPGKGLEWVGIISYAGSTYYASWAKGRLTISKDTSKNQVVLTMTNMDPVDTATYYCARGVPAYSHGGDLWGQGTLVTVSSASTKGPSVFPLAPSSKSTSGGTAALGCLVKDYFPEPVTVSWNSGALTSGVHTFPAVLQSSGLYSLSSVVTVPSSSLGTQTYICNVNHKPSNTKVDKKVEPKSCDKTHTCPPCPAPELLNGPVVFLFPPKPKDTLMISRTPEVTCVVVDVSEEDPEVKFNWYVDGVEVHNAKTKPREEQYNSTYRVVSVLTVLHQDWLNGKEYKCKVSNKALPKPIEKTISKAKGQPREPQVYTLPPSREEMTKNQVSLTCLVKGFYPSDIAVEWESNGQPENNYKTTPPVLDSDGSFFLYSKLTVDKSRWQQGNVFSCSVMHEALHNHYTQKSLSLSP
light: DIVMTQSPATLSLSPGERATLSCTSSQSVYHANWLSWFQQKPGQPPKLLIYWASTLAYGVPSRFSGSGSGTDFTLTISSLQPEDAATYYCAGGYGGGRYAFGQGTKVEIKRTVAAPSVFIFPPSDEQLKSGTASVVCLLNNFYPREAKVQWKVDNALQSGNSQESVTEQDSKDSTYSLSSTLTLSKADYEKHKVYACEVTHQGLSSPVTKSFNRGEC
notes: as for B1
For the molecule B2, the dissociation constant Kd stood at 15000 nM in experiment [1]; 27000 nM in experiment [2]; 1500 nM in [3]; 1100 nM in [4]; 5000 nM in experiment [5]; 1400 nM in [6]. Moreover, the results for the Kd in [7], in experiment [8] and in experiment [9] were 1700 nM, 1700 nM and 4400 nM, respectively.

B3: M103205H795-MY199/M103202L889-SK1 (antibody, human IgG1, kappa)
heavy: QVTLKESGPVLVKPTETLTLTCTVSGIDLSHDDISWVRQAPGKGLEWVGIISYAGSTYYASWAKGRLTISKDTSKNQVVLTMTNMDPVDTATYYCARGVPAYSHGGDLWGQGTLVTVSSASTKGPSVFPLAPSSKSTSGGTAALGCLVKDYFPEPVTVSWNSGALTSGVHTFPAVLQSSGLYSLSSVVTVPSSSLGTQTYICNVNHKPSNTKVDKKVEPKSCDKTHTCPPCPAPELLNGPSVFLFPPKPKDTLMISRTPEVTCVVVDVSEEDPEVKFNWYVDGVEVHNAKTKPREEQYNSTYRVVSVLTVLHQDWLNGKEYKCKVSNKALPKPIEKTISKAKGQPREPQVYTLPPSREEMTKNQVSLTCLVKGFYPSDIAVEWESNGQPENNYKTTPPVLDSDGSFFLYSKLTVDKSRWQQGNVFSCSVMHEALHNHYTQKSLSLSP
light: DIVMTQSPATLSLSPGERATLSCTSSQSVYHANWLSWFQQKPGQPPKLLIYWASTLAYGVPSRFSGSGSGTDFTLTISSLQPEDAATYYCAGGYGGGRYAFGQGTKVEIKRTVAAPSVFIFPPSDEQLKSGTASVVCLLNNFYPREAKVQWKVDNALQSGNSQESVTEQDSKDSTYSLSSTLTLSKADYEKHKVYACEVTHQGLSSPVTKSFNRGEC
notes: as for B1
As for B3, the Kd in experiment [1] amounted to 15000 nM; in experiment [2] it was 2800 nM; in [3], 2000 nM; in experiment [4], 1100 nM; in experiment [5], 12000 nM; in [6], 1900 nM. For the same molecule, the results for the Kd in [7], in experiment [8] and in [9] were 19000 nM, 11000 nM and 4100 nM, respectively.
